Source: patent US20240109945A1 (UNIVERSITY OF GEORGIA RESEARCH FOUNDATION, published 2024)

T1: Asialofetuin (bovine, UniProt P12763 19-359, glycoprotein; desialylated form of Fetuin)
T1 construct: also called AF; desialylated Asialofetuin
T1 sequence (looked up): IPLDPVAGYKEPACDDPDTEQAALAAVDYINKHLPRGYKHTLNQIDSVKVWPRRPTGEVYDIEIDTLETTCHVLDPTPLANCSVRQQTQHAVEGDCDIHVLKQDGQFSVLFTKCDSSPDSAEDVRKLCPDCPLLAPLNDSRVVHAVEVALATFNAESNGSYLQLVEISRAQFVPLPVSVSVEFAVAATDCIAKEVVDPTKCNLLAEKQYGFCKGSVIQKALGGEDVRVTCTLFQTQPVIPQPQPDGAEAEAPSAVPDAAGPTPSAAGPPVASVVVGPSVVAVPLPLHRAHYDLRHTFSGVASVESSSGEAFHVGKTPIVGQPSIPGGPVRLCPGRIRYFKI

T2: Fetuin (bovine, UniProt P12763 19-359, heavily sialylated glycoprotein)
T2 sequence (looked up): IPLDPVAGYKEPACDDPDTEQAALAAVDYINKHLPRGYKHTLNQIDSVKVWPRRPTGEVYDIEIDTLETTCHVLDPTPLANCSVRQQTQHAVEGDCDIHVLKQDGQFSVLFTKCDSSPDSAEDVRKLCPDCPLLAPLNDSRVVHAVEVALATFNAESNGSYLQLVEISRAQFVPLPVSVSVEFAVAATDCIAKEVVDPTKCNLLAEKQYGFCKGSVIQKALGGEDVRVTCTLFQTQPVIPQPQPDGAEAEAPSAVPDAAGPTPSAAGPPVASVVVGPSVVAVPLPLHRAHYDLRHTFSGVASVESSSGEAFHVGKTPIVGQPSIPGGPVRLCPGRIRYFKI

B1: Variant Fbs1-1 (designed binder)
chain: MGSSHHHHHHHHSSGENLYFQSHMASQQEGLVPEGSADEERDHWQQFYFLSKRRRNLLRNPCGEEDLEGWSDVEHGGDGWRVEELPGDNGVEFTQDDSVKKYFASSFEWCRKAQVIDLQAEGYWEELLDTTQPAIVVKDWYSGRTDAGSLYELTVRLLSENEDVLAEFATGQVAVPEDGSWMEISHTFIDYGPGVRFVRFEHGGQDSVYWKGWFGARVTNSSVWVEP
notes: Expressed in E. coli and purified by IMAC
B2: Variant Fbs1-2 (designed binder)
chain: MGSSHHHHHHHHSSGENLYFQSHMASQQEGLVPEGSADEERDHWQQFYFLSKRRRNLLRNPCGEEDLEGWSDVEHGGDGWRVEELPGDNGVEFTQDDSVKKYFASSYRWCRKAQVIDLQAEGYWEELLDTTQPAIVVKDWYSGRTDAGSLYELTVRLLSENEDVLAEFATGQVAVPEDGSWMEISHTFIDYGPGVRFVRFEHGGQDSVYWKGWFGARVTNSSVWVEP

Assays:
Asialofetuin = molecular target: T1, Asialofetuin; experiment: Western blot, 1 µg glycoprotein, Fbs1 variant as probe
Description: (§1) Lanes of each blot are labelled to show results for samples (1 μg each) of glycoproteins Asialofetuin, Fetuin, RNase B, Ovalbumin, Horse Radish Peroxidase, and IgG polyclonal antibody from rabbit, and a non-glycosylated protein RNase A, that were separated by SDS-PAGE, blotted on nitrocellulose membrane, and probed with Fbs1-1 (left blot) or Fbs1-2 (right blot).

Fetuin = molecular target: T2, Fetuin; experiment: as above
Description: as §1

| Binder | binding result (Asialofetuin) | binding result (Fetuin) |
| --- | --- | --- |
| B1 | binds | binds |
| B2 | binds | binds |
